Laboratory results taken from patent US20230181756A1 (Novartis, published 2023).
Residue numbers refer to the chain shown, from its start.

Experiments:
[1] = molecular target: T1, human CCR7 (human, UniProt P32248 25-378); experiment: cell-based or functional assay
T1 sequence: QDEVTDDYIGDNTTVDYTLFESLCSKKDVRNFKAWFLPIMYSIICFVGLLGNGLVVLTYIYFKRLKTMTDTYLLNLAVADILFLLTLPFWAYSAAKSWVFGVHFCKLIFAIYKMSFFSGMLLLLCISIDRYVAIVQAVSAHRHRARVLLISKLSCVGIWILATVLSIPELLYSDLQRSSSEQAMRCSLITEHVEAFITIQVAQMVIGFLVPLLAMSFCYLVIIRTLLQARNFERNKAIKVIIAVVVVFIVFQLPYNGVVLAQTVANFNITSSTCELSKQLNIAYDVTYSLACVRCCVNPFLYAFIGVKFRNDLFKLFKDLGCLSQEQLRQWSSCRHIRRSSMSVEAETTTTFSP

[2] = molecular target: T1, human CCR7; experiment: cell-based or functional assay; remark: listed apart in the source
[3] = molecular target: T2, rat CCR7 (rat, UniProt P47774 25-378 (mouse entry)); experiment: FACS titration, Wistar rat CD4+ T cells
T2 construct: also called NIH3T3.rat CCR7
T2 chain: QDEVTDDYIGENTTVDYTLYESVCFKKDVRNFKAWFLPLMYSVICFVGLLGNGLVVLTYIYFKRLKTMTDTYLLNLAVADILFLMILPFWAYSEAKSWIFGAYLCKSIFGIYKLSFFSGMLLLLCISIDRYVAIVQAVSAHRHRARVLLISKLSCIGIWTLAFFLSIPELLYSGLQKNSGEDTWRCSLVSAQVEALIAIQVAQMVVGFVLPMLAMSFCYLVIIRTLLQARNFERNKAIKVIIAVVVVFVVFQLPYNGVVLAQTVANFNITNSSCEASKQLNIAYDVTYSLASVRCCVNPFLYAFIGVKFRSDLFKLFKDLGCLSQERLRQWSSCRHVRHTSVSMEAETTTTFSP

[4] = molecular target: T3, mouse CCR7 (mouse, UniProt P47774 25-378); experiment: FACS titration, CD-1 mouse CD4+ T cells
T3 construct: also called NIH3T3.mouse CCR7
T3 sequence: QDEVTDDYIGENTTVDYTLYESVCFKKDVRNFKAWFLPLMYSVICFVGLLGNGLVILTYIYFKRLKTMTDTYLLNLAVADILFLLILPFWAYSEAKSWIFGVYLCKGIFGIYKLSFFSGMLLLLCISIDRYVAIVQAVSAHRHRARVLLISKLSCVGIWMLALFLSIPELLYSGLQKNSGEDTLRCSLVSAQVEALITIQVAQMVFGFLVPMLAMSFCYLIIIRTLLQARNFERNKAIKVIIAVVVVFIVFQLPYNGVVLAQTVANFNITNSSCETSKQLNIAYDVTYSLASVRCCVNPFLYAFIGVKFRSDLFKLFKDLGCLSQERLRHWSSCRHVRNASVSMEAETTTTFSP

[5] = molecular target: T1, human CCR7; experiment: FACS titration, human CD4+ T cells from PBMC
[6] = molecular target: T1, human CCR7; experiment: cell-based or functional assay; remark: listed apart in the source
[7] = molecular target: T4, cynomolgus monkey CCR7 (cynomolgus monkey, UniProt P32248 25-378 (human entry)); experiment: FACS titration, cynomolgus CD4+ T cells
T4 construct: also called Cyno CCR7; NIH3T3.cyno CCR7
T4 sequence: T1 sequence with D174G

[8] = molecular target: T1, human CCR7; experiment: FACS binding on CCR7 expressing cells, against the unconjugated antibody
[9] = molecular target: T1, human CCR7; experiment: cell-based or functional assay; remark: listed apart in the source
[10] = molecular target: T1, human CCR7; experiment: FACS titration, human CD4+ T cells (receptor density <2,000)
[11] = molecular target: T1, human CCR7; experiment: cell-based or functional assay; remark: listed apart in the source
[12] = molecular target: T1, human CCR7; experiment: FACS titration, NIH3T3 cells expressing human CCR7

B1: Parental 506E15 (antibody, V domains shown)
VH: EVMLVESGGGLVKPGGSLKLSCAASGFTFSSYAMSWIRQTPEKRLEWVATISSGGSFTYYPDSVKGRFTISRDNVKNTLYLQMSSLRSEDTAMYYCARRASTVVGTDFDVWGAGTTVTVSS
VL: DIQMTQSPSSLSASLGERVSLTCRASQDIGSSLNWLQQEPDGTIKRLIYATSSLDSGVPKRFSGSRSGSDYSLTISSLESEDFVVYYCLQYASSPPTFGGGTKLEIK
[1]
  ADCC reporter assay, 506E15 IC50 (nM), ALL-SIL cells (CCR7 receptor # 6,200): 0.008 nM
  ADCC reporter assay, 506E15 IC50 (nM), CMLT-1 cells (CCR7 receptor # 29,000): 0.011 nM
  ADCC reporter assay, 506E15 IC50 (nM), DEL cells (CCR7 receptor # 62,000): 0.074 nM
  ADCC reporter assay, 506E15 IC50 (nM), DND-41 cells (CCR7 receptor # 1,700): 0.002 nM
  ADCC reporter assay, 506E15 IC50 (nM), JVM2 cells (CCR7 receptor # 66,500): 0.046 nM
  ADCC reporter assay, 506E15 IC50 (nM), Jurkat V158 cells (CCR7 receptor # 3,400): 0.004 nM
  ADCC reporter assay, 506E15 IC50 (nM), MOTN-1 cells (CCR7 receptor # 64,600): 0.077 nM
  ADCC reporter assay, 506E15 IC50 (nM), PEER cells (CCR7 receptor # 8,700): 0.038 nM
  ADCC reporter assay, 506E15 IC50 (nM), SR786 cells (CCR7 receptor # 27,800): 0.011 nM
[2]
  pgADC cytotoxic assay, Anti-mFc.MMAF, AMAX (%): 95%
  pgADC cytotoxic assay, Anti-mFc.MMAF, IC50: 0.07 nM
  pgADC cytotoxic assay, Fab-ZAP, AMAX (%): 60%
  pgADC cytotoxic assay, Fab-ZAP, IC50: 0.135 nM

B2: 506E15 non-humanized CysMab (antibody, human IgG1, kappa, V domains shown)
VH: B1 VH
VL: DIQMTQSPSSLSASLGERVSLTCRASQDIGSSLNWLQQEPDGTIKRLIYATSSLDSGVPKRFSGSRSGSDYSLTISSLESEDFVVYYCLQYASSPPTFGGGTKLEIKR
notes: Chimeric human IgG1 kappa with CysMab cysteines and wild type Fc; also called Parental 506E15 hIgG1 CysMab; Non-humanized CysMab antibody 506E15
[3]
  binding result: no binding
[4]
  binding result: no binding
[5]
  EC50: 4.6 to 9.7 nM
[6]
  ADCC activity; IC50 (nM); reporter assay, JVM2 targets and Jurkat-V158 effectors: 0.131 nM
[7]
  EC50: 6.6 nM

B3: Parental 684E12 (antibody, IgG1, V domains shown)
VH: EVHLVESGGGLVKPGGSLKLSCAASGFTFSNFAMSWVRQTPEKRLEWVATISTGGTYTYYPDSVKGRFTISRDNAKKTLYLQMSSLRSEDTAMYYCTRRGYDGVDKWGQGTTLTVSS
VL: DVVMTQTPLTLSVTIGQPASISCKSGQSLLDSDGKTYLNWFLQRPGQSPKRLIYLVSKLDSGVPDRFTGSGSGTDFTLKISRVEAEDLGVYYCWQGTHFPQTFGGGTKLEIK
[2]
  pgADC cytotoxic assay, Anti-mFc.MMAF, AMAX (%): 80%
  pgADC cytotoxic assay, Anti-mFc.MMAF, IC50: 0.214 nM
  pgADC cytotoxic assay, Fab-ZAP, AMAX (%): 33%
  pgADC cytotoxic assay, Fab-ZAP, IC50: 2.6 nM

B4: 684E12.SMCC.DM1 (antibody, V domains shown)
VH: B3 VH
VL: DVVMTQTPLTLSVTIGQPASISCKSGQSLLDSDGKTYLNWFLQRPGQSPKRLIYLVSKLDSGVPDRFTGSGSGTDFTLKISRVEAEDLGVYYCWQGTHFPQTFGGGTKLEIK
modifications: SMCC-DM1 on lysines of the antibody, DAR 2.6
notes: also called parental 684E12.SMCC.DM1
[8]
  difference of geometric mean fluorescence intensity from the unconjugated antibody: ≤ 20%

B5: 506E15.CysMab.DAPA.AURIX2 (antibody, human IgG1, kappa, V domains shown)
VH: EVQLVESGGGLVKPGGSLRLSCAASGFTFSSYAMSWIRQAPGKGLEWVATISSGGSFTYYPDSVKGRFTISRDNAKNSLYLQMNSLRAEDTAVYYCARRASTVVGTDFDVWGQGTTVTVSS
VL: DIQMTQSPSSLSASVGDRVTLTCRASQDIGSSLNWLQQKPGKAIKRLIYATSSLDSGVPSRFSGSRSGTDYTLTISSLQPEDFVVYYCLQYASSPPTFGGGTKLEIKR
modifications: AURIX2 on engineered cysteines, DAR 3.80
notes: also called 506E15.DAPA.AURIX2
[8]
  difference of geometric mean fluorescence intensity from the unconjugated antibody: ≤ 20%
[9]
  ADC activity in cell viability assay; IC50 (nM); DEL cells: 0.0084 nM
  ADC activity in cell viability assay; IC50 (nM); KE97 cells: 0.0131 nM

B6: Parental 121G12 (antibody, V domains shown)
VH: EVQLVESGGGLVKPGGSLKLSCAASGFTFSTYAMSWVRQTPEKRLEWVATISDGGSYSYYPDNVKGRFTISRDNAKNNLYLQMSHLKSEDTAMYYCARRGSRYEEYYVMDYWGQGTSVTVSS
VL: DIVLTQSPATLSVTPGDSVSLSCRASQSISNNLHWYQQKSHESPKLLIKYASQSISGIPSRFSGSGSGTDFTLSINSVETEDFGMYFCQQSNSWLTFGAGTKLGLK
[2]
  pgADC cytotoxic assay, Anti-mFc.MMAF, AMAX (%): 104%
  pgADC cytotoxic assay, Anti-mFc.MMAF, IC50: 0.055 nM
  pgADC cytotoxic assay, Fab-ZAP, AMAX (%): 43%
  pgADC cytotoxic assay, Fab-ZAP, IC50: 0.064 nM

B7: Humanized 684E12 hIgG1 DAPA CysMab (antibody, V domains shown)
VH: EVQLVESGGGLVKPGGSLRLSCAASGFTFSNFAMSWVRQAPGKGLEWVSTISTGGTYTYYPDSVKGRFTISRDNAKNSLYLQMNSLRAEDTAVYYCARRGYSGVDKWGQGTTVTVSS
VL: DVVMTQSPLSLPVTLGQPASISCKSGQSLLDSTGKTYLNWFLQRPGQSPRRLIYLVSKLDSGVPDRFSGSGSGTDFTLKISRVEAEDVGVYYCWQGTHFPQTFGGGTKLEIKR
notes: also called Humanized CysMab.DAPA antibody 684E12
[10]
  EC50: ~7 nM

B8: 674J13.CysMab.DAPA.AURIX2 (antibody, human IgG1, kappa, V domains shown)
VH: DVQLQESGPGLVKPSQTLSLTCTVSGYSITSGYSWHWIRQHPGKGLEWMAHIHSSGSTNYNPSLKSRITISRDTSKNQFSLKLSSVTAADTAVYYCARGGVQAFAYWGQGTLVTVSS
VL: EIVLTQSPATLSASPGERVTMSCSASSSVIYMHWYQQKPGQAPRRWIYDTSKLASGVPARFSGSGSGTDYTLTISSMEPEDAAVYYCQQWSSNPLTFGQGTKLEIKR
modifications: DAR LC 0.03; AURIX2 on engineered cysteines, DAR HC 3.93
notes: also called 674J13.DAPA.AURIX2
[8]
  difference of geometric mean fluorescence intensity from the unconjugated antibody: ≤ 20%
[9]
  ADC activity in cell viability assay; IC50 (nM); DEL cells: 0.117 nM
  ADC activity in cell viability assay; IC50 (nM); KE97 cells: 0.0658 nM
[11]
  ADC activity in cell viability assay; IC50 (nM); CML-T1 cells (CCR7 receptor levels ~29,000): 3.78 nM
  ADC activity in cell viability assay; IC50 (nM); DEL cells (CCR7 receptor levels ~100,000): 0.242 nM
  ADC activity in cell viability assay; IC50 (nM); KE97 cells (CCR7 receptor levels ~100,000): 0.102 nM
  ADC activity in cell viability assay; IC50 (nM); SR786 cells (CCR7 receptor levels ~28,000): 2.74 nM

B9: 674J13 non-humanized CysMab (antibody, human IgG1, kappa, V domains shown)
VH: DVQLQESGPDLVKPSQSLSLTCTVTGYSITSGYSWHWIRQFPGNKLEWMAHIHSSGSTNYNPSLKSRISIIRDTSKNLFFLQLNSVTTEDTATYYCARGGVQAFAYWGQGTLVTVSA
VL: QIVLTQSPAIMSASPGEKVTMTCSASSSVIYMHWYQQKSGTSPKRWIYDTSKLASGVPARFSGSGSGTSYSLTISSMEAEDAATYYCQQWSSNPLTFGAGTTLELKR
notes: Chimeric human IgG1 kappa with CysMab cysteines and wild type Fc; also called Parental 674J13 hIgG1 CysMab; Non-humanized CysMab antibody 674J13
[3]
  binding result: no binding
[4]
  binding result: no binding
[12]
  EC50: 3.6 nM
[5]
  EC50: 0.39 to 1.4 nM
[6]
  ADCC activity; IC50 (nM); reporter assay, JVM2 targets and Jurkat-V158 effectors: 1.09 nM
[7]
  EC50: 0.45 nM

B10: Parental 674J13 (antibody, IgG1, V domains shown)
VH: B9 VH
VL: QIVLTQSPAIMSASPGEKVTMTCSASSSVIYMHWYQQKSGTSPKRWIYDTSKLASGVPARFSGSGSGTSYSLTISSMEAEDAATYYCQQWSSNPLTFGAGTTLELK
[2]
  pgADC cytotoxic assay, Anti-mFc.MMAF, AMAX (%): 102%
  pgADC cytotoxic assay, Anti-mFc.MMAF, IC50: 0.137 nM
  pgADC cytotoxic assay, Fab-ZAP, AMAX (%): 31%
  pgADC cytotoxic assay, Fab-ZAP, IC50: 6.12 nM
